Laboratory results reported in patent US20110091450.

Target: mouse MBL (mannose-binding lectin of mouse serum, bound to mannan)

B1: recombinant mouse MASP-2 (rMASP-2) (protein)
chain: TLLGSKWPEPVFGRLVSPGFPEKYADHQDRSWTLTAPPGYRLRLYFTHFDLELSYRCEYDFVKLSSGTKVLATLCGQESTDTEQAPGNDTFYSLGPSLKVTFHSDYSNEKPFTGFEAFYAAEDVDECRVSLGDSVPCDHYCHNYLGGYYCSCRAGYILHQNKHTCSALCSGQVFTGRSGYLSSPEYPQPYPKLSSCTYSIRLEDGFSVILDFVESFDVETHPEAQCPYDSLKIQTDKGEHGPFCGKTLPPRIETDSHKVTITFATDESGNHTGWKIHYTSTARPCPDPTAPPNGSISPVQATYVLKDRFSVFCKTGFELLQGSVPLKSFTAVCQKDGSWDRPMPECSIIDCGPPDDLPNGHVDYITGPQVTTYKAVIQYSCEETFYTMSSNGKYVCEADGFWTSSKGEKLPPVCEPVCGLSTHTIGGRIVGGQPAKPGDFPWQVLLLGQTTAAAGALIHDNWVLTAAHAVYEKRMAASSLNIRMGILKRLSPHYTQAWPEEIFIHEGYTHGAGFDNDIALIKLKNKVTINGSIMPVCLPRKEAASLMRTDFTGTVAGWGLTQKGLLARNLMFVDIPIADHQKCTTVYEKLYPGVRVSANMLCAGLETGGKDSCRGDSGGALVFLDNETQRWFVGGIVSWGSINCGAAGQYGVYTKVINYIPWNENIISNF
- C4 deposition on mannan-coated wells (sMAP-/- mouse serum): the amount of C4 was restored by up to 46% of that of wild-type serum in a dose-dependent manner and reached a plateau (FIG. 25B)
